From publication PMC8326426, “Resveratrol-induced Sirt1 phosphorylation by LKB1 mediates mitochondrial metabolism” (The Journal of Biological Chemistry, 2021)

T1: MBP-Sirt1 core domain, aa 234 to 510 (human, UniProt Q96EB6 234-510)
T1 construct: Sirt1, human, deacetylase core domain, aa 234 to 510; MBP-tagged Sirt1 was made by subcloning human Sirt1 cDNA into pMal-c2X; also called MBP-tagged core domain of Sirt1; source: E. coli, purified
T1 sequence (looked up): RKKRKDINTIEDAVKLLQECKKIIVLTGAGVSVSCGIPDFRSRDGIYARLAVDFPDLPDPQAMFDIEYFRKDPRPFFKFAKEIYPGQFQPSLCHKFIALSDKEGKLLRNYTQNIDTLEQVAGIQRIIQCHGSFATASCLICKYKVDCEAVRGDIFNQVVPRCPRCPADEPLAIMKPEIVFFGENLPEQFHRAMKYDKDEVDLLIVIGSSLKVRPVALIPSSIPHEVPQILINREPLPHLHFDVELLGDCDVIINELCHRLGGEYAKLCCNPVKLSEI

T2: His-Sirt1 core domain, aa 234 to 510 (human, UniProt Q96EB6 234-510)
T2 construct: Sirt1, human, deacetylase core domain, aa 234 to 510; His-tagged Sirt1 was made by subcloning human Sirt1 cDNA into pET28a; also called His-tagged Sirt1 core domain; source: E. coli Rosetta (DE3), eluted
T2 sequence (looked up): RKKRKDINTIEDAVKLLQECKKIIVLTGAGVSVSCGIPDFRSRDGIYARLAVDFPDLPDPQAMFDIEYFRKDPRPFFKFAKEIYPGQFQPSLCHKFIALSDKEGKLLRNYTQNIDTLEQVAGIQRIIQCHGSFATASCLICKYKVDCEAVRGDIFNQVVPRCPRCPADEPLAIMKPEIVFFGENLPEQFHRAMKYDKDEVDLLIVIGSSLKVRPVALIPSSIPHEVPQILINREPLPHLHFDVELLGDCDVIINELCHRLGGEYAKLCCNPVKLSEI


What follows are binders tested against T1, MBP-Sirt1 core domain, aa 234 to 510 (assay: pull-down; MBP pull-down: MBP-Sirt1 core domain purified from E. coli incubated with eluted GST-Sirt1 C terminus (WT, 3A or 3D); bound fraction immunoblotted). Conditions: both partners purified.

Row | binding result | Binder
1 | binds | GST-Sirt1 WT (C terminus), aa 511 to 747 (domain or fragment, human, UniProt Q96EB6 511-747, looked up, Sirt1, human, C terminus, aa 511 to 747; GST-tagged Sirt1 was made by subcloning human Sirt1 cDNA into pGEX-6p-1; also called GST-Sirt1-C; GST-tagged C terminus of Sirt1; source: E. coli Rosetta (DE3), purified (glutathione-Sepharose 4B, eluted with reduced glutathione)) TEKPPRTQKELAYLSELPPTPLHVSEDSSSPERTSPPDSSVIVTLLDQAAKSNDDLDVSESKGCMEEKPQEVQTSRNVESIAEQMENPDLKNVGSSTGEKNERTSVAGTVRKCWPNRVAKEQISRRLDGNQYLFLPPNRYIFHGAEVYSDSEDDVLSSSSCGSNSDSGTCQSPSLEEPMEDESEIEEFYNGLEDEPDVPERAGGAGFGTDGDDQEAINEAISVKQEVTDMNYPSNKS
2 | binds | GST-Sirt1 3D mutant (C terminus), aa 511 to 747 (domain or fragment, human, UniProt Q96EB6 511-747, looked up, Sirt1, human, C terminus, aa 511 to 747, Ser615, Ser669 and Ser732 replaced by Asp; source: E. coli Rosetta (DE3), purified (glutathione-Sepharose 4B, eluted with reduced glutathione)) TEKPPRTQKELAYLSELPPTPLHVSEDSSSPERTSPPDSSVIVTLLDQAAKSNDDLDVSESKGCMEEKPQEVQTSRNVESIAEQMENPDLKNVGSSTGEKNERTDVAGTVRKCWPNRVAKEQISRRLDGNQYLFLPPNRYIFHGAEVYSDSEDDVLSSDSCGSNSDSGTCQSPSLEEPMEDESEIEEFYNGLEDEPDVPERAGGAGFGTDGDDQEAINEAIDVKQEVTDMNYPSNKS
3 | binds | GST-Sirt1 3A mutant (C terminus), aa 511 to 747 (domain or fragment, human, UniProt Q96EB6 511-747, looked up, Sirt1, human, C terminus, aa 511 to 747, Ser615, Ser669 and Ser732 replaced by Ala; source: E. coli Rosetta (DE3), purified (glutathione-Sepharose 4B, eluted with reduced glutathione)) TEKPPRTQKELAYLSELPPTPLHVSEDSSSPERTSPPDSSVIVTLLDQAAKSNDDLDVSESKGCMEEKPQEVQTSRNVESIAEQMENPDLKNVGSSTGEKNERTAVAGTVRKCWPNRVAKEQISRRLDGNQYLFLPPNRYIFHGAEVYSDSEDDVLSSASCGSNSDSGTCQSPSLEEPMEDESEIEEFYNGLEDEPDVPERAGGAGFGTDGDDQEAINEAIAVKQEVTDMNYPSNKS

What follows are binders tested against T2, His-Sirt1 core domain, aa 234 to 510 (assay: pull-down; competitive binding: 2 ug GST-LZ of DBC1 from E. coli, 2 ug eluted His-Sirt1 core domain, with or without 2 ug eluted C-terminal truncation of Sirt1 (WT or mutants), 4 h; bound fraction immunoblotted). Conditions: both partners purified.

Row | binding result | Binder
4 | binds | C-terminal truncation of Sirt1, WT (eluted competitor), aa 511 to 747 (domain or fragment, human, UniProt Q96EB6 511-747, looked up, Sirt1, human, C terminus, aa 511 to 747; the methods name GST- and His-tagged Sirt1 truncations from E. coli; also called the C terminus of Sirt1; WT C terminus; source: eluted) TEKPPRTQKELAYLSELPPTPLHVSEDSSSPERTSPPDSSVIVTLLDQAAKSNDDLDVSESKGCMEEKPQEVQTSRNVESIAEQMENPDLKNVGSSTGEKNERTSVAGTVRKCWPNRVAKEQISRRLDGNQYLFLPPNRYIFHGAEVYSDSEDDVLSSSSCGSNSDSGTCQSPSLEEPMEDESEIEEFYNGLEDEPDVPERAGGAGFGTDGDDQEAINEAISVKQEVTDMNYPSNKS
5 | binds | C-terminal truncation of Sirt1, 3D mutant (eluted competitor), aa 511 to 747 (domain or fragment, human, UniProt Q96EB6 511-747, looked up, Sirt1, human, C terminus, aa 511 to 747, Ser615, Ser669 and Ser732 replaced by Asp; also called 3D C terminus; source: eluted) TEKPPRTQKELAYLSELPPTPLHVSEDSSSPERTSPPDSSVIVTLLDQAAKSNDDLDVSESKGCMEEKPQEVQTSRNVESIAEQMENPDLKNVGSSTGEKNERTDVAGTVRKCWPNRVAKEQISRRLDGNQYLFLPPNRYIFHGAEVYSDSEDDVLSSDSCGSNSDSGTCQSPSLEEPMEDESEIEEFYNGLEDEPDVPERAGGAGFGTDGDDQEAINEAIDVKQEVTDMNYPSNKS
6 | binds | LQRRYRSLLVPSDFLSVHLSWL (domain or fragment, UniProt Q8N163 243-264, looked up, DBC1 (Deleted in Breast Cancer 1), leucine zipper, aa 243 to 264; also called GST-LZ; DBC1 LZ domain; source: E. coli, purified) [GST-tagged LZ (leucine-zipper) domain of DBC1, aa 243 to 264]
